Assay results as given in patent US20240132578A1.

What was measured:
Test in all cases: cell-based or functional assay
[1] = molecular target: HIV-1 92BR020 envelope protein (Env) on pseudotyped virus (HIV-1 strain 92BR020)
[2] = molecular target: HIV-1 SF162 envelope protein (Env) on pseudotyped virus (HIV-1 isolate SF162) (UniProt P19550)
[3] = molecular target: aMLV envelope on pseudotyped virus (negative control) (aMLV)
[4] = molecular target: HIV-1 JR-CSF Env N276A (HIV-1 (isolate JR-CSF)) (UniProt P20871)
[5] = molecular target: HIV-1 JR-CSF Env R350A (HIV-1 isolate JR-CSF) (UniProt P20871)
[6] = molecular target: HIV-1 JR-CSF Env I326A (HIV-1 isolate JR-CSF) (UniProt P20871)
[7] = molecular target: HIV-1 JR-CSF Env N386A (HIV-1 isolate JR-CSF) (UniProt P20871)
[8] = molecular target: HIV-1 92RW020 envelope glycoprotein (Env), on pseudovirus (HIV-1 isolate 92RW020 (clade A))
[9] = molecular target: HIV-1 ADA envelope glycoprotein (Env), on pseudovirus (HIV-1 isolate ADA)
[10] = molecular target: HIV-1 JR-CSF Env G324A (HIV-1 isolate JR-CSF) (UniProt P20871)
[11] = molecular target: HIV-1 Env of isolate 6535.3 (subtype B), on pseudovirus (HIV-1)
[12] = molecular target: HIV-1 Env of isolate 92UG046 (subtype D) (HIV-1)
[13] = molecular target: HIV-1 Env of isolate 92UG114 (subtype D) (HIV-1)
[14] = molecular target: HIV-1 Env of isolate 93TH305 (subtype B), on pseudovirus (HIV-1)
[15] = molecular target: HIV-1 Env of isolate 94KE105 (pseudovirus) (HIV-1)
[16] = molecular target: HIV-1 Env of isolate APV_17 (subtype B), on pseudovirus (HIV-1)
[17] = molecular target: HIV-1 Env of isolate APV_6 (subtype B), on pseudovirus (HIV-1)
[18] = molecular target: HIV-1 Env of isolate MG RM-C-022 (HIV-1)
[19] = molecular target: HIV-1 Env of isolate MG RM-C-023 (HIV-1)
[20] = molecular target: HIV-1 Env of isolate MG RM-D-004 (subtype D) (HIV-1)
[21] = molecular target: HIV-1 Env of isolate MG RM-D-005 (subtype D) (HIV-1)
[22] = molecular target: HIV-1 Env of isolate MG RM-D-008 (subtype D) (HIV-1)
[23] = molecular target: HIV-1 Env of isolate MG RM-D-012 (subtype D) (HIV-1)
[24] = molecular target: HIV-1 Env of isolate MG RM-D-013 (subtype D) (HIV-1)
[25] = molecular target: HIV-1 Env of isolate MG RM-D-014 (subtype D) (HIV-1)
[26] = molecular target: HIV-1 Env of isolate MG RM-D-019 (subtype D) (HIV-1)
[27] = molecular target: HIV-1 Env of isolate MG RM-D-026 (subtype D) (HIV-1)
[28] = molecular target: HIV-1 Env of isolate MG RM-D-028 (subtype D) (HIV-1)
[29] = molecular target: HIV-1 Env of isolate MGRM-A-012 (pseudovirus) (HIV-1)
[30] = molecular target: HIV-1 Env of isolate MGRM-C-027 (clade C pseudovirus) (HIV-1)
[31] = molecular target: HIV-1 Env of isolate MGRM-Chronic-B-002 (subtype B), on pseudovirus (HIV-1)
[32] = molecular target: HIV-1 Env of isolate MGRM-Chronic-B-004 (subtype B), on pseudovirus (HIV-1)
[33] = molecular target: HIV-1 Env of isolate MGRM-Chronic-B-017 (subtype B), on pseudovirus (HIV-1)
[34] = molecular target: HIV-1 Env of isolate MGRM-Chronic-B-018 (subtype B), on pseudovirus (HIV-1)
[35] = molecular target: HIV-1 Env of isolate MGRM-F1-006 (subtype F) (HIV-1)
[36] = molecular target: HIV-1 Env of isolate MGRM-F1-010 (subtype F) (HIV-1)
[37] = molecular target: HIV-1 Env of isolate MGRM-F1-013 (subtype F) (HIV-1)
[38] = molecular target: HIV-1 Env of isolate MGRM-F1-016 (subtype F) (HIV-1)
[39] = molecular target: HIV-1 Env of pseudovirus 98CN009 (HIV-1)
[40] = molecular target: HIV-1 envelope glycoprotein (Env) of isolate 92WR009 (HIV-1)
[41] = molecular target: HIV-1 envelope glycoprotein (Env) of isolate 92WR020 (HIV-1)
[42] = molecular target: HIV-1 envelope glycoprotein (Env) of isolate 92WR021 (HIV-1)
[43] = molecular target: HIV-1 envelope glycoprotein (Env) of isolate 92WR026 (HIV-1)
[44] = molecular target: HIV-1 envelope glycoprotein (Env) of isolate 93WR029 (HIV-1)

1495_C14 (PGC14) (antibody)
IC50, Neutralizing Antibody Assay, Virus/Ab Incubation 1 hour [1]: 1.17 µg/mL | IC50, Neutralizing Antibody Assay, Virus/Ab Incubation 18 hour [1]: 0.244 µg/mL | IC50, Neutralizing Antibody Assay, Virus/Ab Incubation 1 hour [2]: 0.0069 µg/mL | IC50, Neutralizing Antibody Assay, Virus/Ab Incubation 18 hour [2]: < 0.0025 µg/mL | IC50, Neutralizing Antibody Assay, Virus/Ab Incubation 1 hour [3]: > 50 µg/mL | IC50, Neutralizing Antibody Assay, Virus/Ab Incubation 18 hour [3]: > 50 µg/mL

5136_H01 (PGT-131) (antibody)
Fold IC50 increase relative to wild-type [4]: 0.8 fold | Fold IC50 increase relative to wild-type [5]: 1.3 fold

5114_A19 (PGT-128) (antibody)
Fold IC50 increase relative to wild-type [6]: 1.6 fold

5123_A06 (PGT-125) (antibody)
Fold IC50 increase relative to wild-type [7]: 0.8 fold

5343_B08 (PGT-135) (antibody)
Fold IC50 increase relative to wild-type [4]: 2.5 fold

1443_C16 (PG16) (TCN-116) (antibody)
IC50, Neutralizing Antibody Assay, Virus/Ab Incubation 1 hour [1]: > 50 µg/mL | IC50, Neutralizing Antibody Assay, Virus/Ab Incubation 18 hour [1]: > 50 µg/mL | IC50 (ug/ml), pseudovirus neutralization, TZM-bl assay [8]: 0.09 µg/mL | IC50 (ug/ml), pseudovirus neutralization, TZM-bl assay [9]: 0.004 µg/mL | IC50, Neutralizing Antibody Assay, Virus/Ab Incubation 1 hour [2]: > 50 µg/mL | IC50, Neutralizing Antibody Assay, Virus/Ab Incubation 18 hour [2]: > 50 µg/mL | IC50, Neutralizing Antibody Assay, Virus/Ab Incubation 1 hour [3]: > 50 µg/mL | IC50, Neutralizing Antibody Assay, Virus/Ab Incubation 18 hour [3]: > 50 µg/mL

4858_P08 (PGT-123) (antibody)
Fold IC50 increase relative to wild-type [10]: 14.5 fold

PGV04 (antibody)
IC50, single-round pseudovirus neutralization [11]: 0.757 µg/mL | IC50 (µg/mL), pseudovirus neutralization [12]: 22.4 µg/mL | IC50 (µg/mL), pseudovirus neutralization [13]: 0.461 µg/mL | IC50, single-round pseudovirus neutralization [14]: 0.255 µg/mL | IC50 (µg/mL), pseudovirus neutralization [15]: 2.98 µg/mL | IC50, single-round pseudovirus neutralization [16]: 0.309 µg/mL | IC50, single-round pseudovirus neutralization [17]: 24.2 µg/mL | IC50 (µg/mL), pseudovirus neutralization [18]: 18.3 µg/mL | IC50 (µg/mL), pseudovirus neutralization [19]: 0.128 µg/mL | IC50 (µg/mL), pseudovirus neutralization [20]: 43.2 µg/mL | IC50 (µg/mL), pseudovirus neutralization [21]: > 50 µg/mL | IC50 (µg/mL), pseudovirus neutralization [22]: 3.56 µg/mL | IC50 (µg/mL), pseudovirus neutralization [23]: 0.125 µg/mL | IC50 (µg/mL), pseudovirus neutralization [24]: 0.088 µg/mL | IC50 (µg/mL), pseudovirus neutralization [25]: 0.194 µg/mL | IC50 (µg/mL), pseudovirus neutralization [26]: 0.35 µg/mL | IC50 (µg/mL), pseudovirus neutralization [27]: 1.76 µg/mL | IC50 (µg/mL), pseudovirus neutralization [28]: 1.01 µg/mL | IC50 (µg/mL), pseudovirus neutralization [29]: 0.225 µg/mL | IC50 (µg/mL), single-round pseudovirus neutralization [30]: 2.76 µg/mL | IC50, single-round pseudovirus neutralization [31]: 0.142 µg/mL | IC50, single-round pseudovirus neutralization [32]: 0.047 µg/mL | IC50, single-round pseudovirus neutralization [33]: 0.129 µg/mL | IC50, single-round pseudovirus neutralization [34]: 0.164 µg/mL | IC50 (µg/mL), pseudovirus neutralization [35]: > 50 µg/mL | IC50 (µg/mL), pseudovirus neutralization [36]: 0.184 µg/mL | IC50 (µg/mL), pseudovirus neutralization [37]: 0.084 µg/mL | IC50 (µg/mL), pseudovirus neutralization [38]: 0.268 µg/mL | IC50, pseudovirus neutralization [39]: 0.0125 µg/mL | IC50 [40]: 0.108 µg/mL | IC50 [41]: 0.055 µg/mL | IC50 [42]: 0.038 µg/mL | IC50 [43]: 0.14 µg/mL | IC50 [44]: 0.54 µg/mL

5145_B14 (PGT-127) (antibody)
Fold IC50 increase relative to wild-type [6]: 3.5 fold

1496_C09 (PG9) (TCN-109) (antibody)
IC50 (ug/ml), pseudovirus neutralization, TZM-bl assay [8]: 0.1 µg/mL | IC50 (ug/ml), pseudovirus neutralization, TZM-bl assay [9]: 0.2 µg/mL | IC50, single-round pseudovirus neutralization [11]: 1.05 µg/mL | IC50 (µg/mL), pseudovirus neutralization [12]: 1.86 µg/mL | IC50 (µg/mL), pseudovirus neutralization [13]: 40.6 µg/mL | IC50, single-round pseudovirus neutralization [14]: 8.12 µg/mL | IC50 (µg/mL), pseudovirus neutralization [15]: 37.9 µg/mL | IC50, single-round pseudovirus neutralization [16]: 34.8 µg/mL | IC50, single-round pseudovirus neutralization [17]: 0.181 µg/mL | IC50 (µg/mL), pseudovirus neutralization [18]: 0.346 µg/mL | IC50 (µg/mL), pseudovirus neutralization [19]: 0.614 µg/mL | IC50 (µg/mL), pseudovirus neutralization [20]: 0.06 µg/mL | IC50 (µg/mL), pseudovirus neutralization [21]: 1.8 µg/mL | IC50 (µg/mL), pseudovirus neutralization [22]: 11.5 µg/mL | IC50 (µg/mL), pseudovirus neutralization [23]: 16.2 µg/mL | IC50 (µg/mL), pseudovirus neutralization [24]: 0.021 µg/mL | IC50 (µg/mL), pseudovirus neutralization [25]: 0.023 µg/mL | IC50 (µg/mL), pseudovirus neutralization [26]: 0.038 µg/mL | IC50 (µg/mL), pseudovirus neutralization [27]: 23.7 µg/mL | IC50 (µg/mL), pseudovirus neutralization [28]: 20.2 µg/mL | IC50 (µg/mL), pseudovirus neutralization [29]: 19.3 µg/mL | IC50 (µg/mL), single-round pseudovirus neutralization [30]: 5.36 µg/mL | IC50, single-round pseudovirus neutralization [31]: 3.44 µg/mL | IC50, single-round pseudovirus neutralization [32]: 0.533 µg/mL | IC50, single-round pseudovirus neutralization [33]: 0.688 µg/mL | IC50, single-round pseudovirus neutralization [34]: 0.216 µg/mL | IC50 (µg/mL), pseudovirus neutralization [35]: 7.25 µg/mL | IC50 (µg/mL), pseudovirus neutralization [36]: 0.012 µg/mL | IC50 (µg/mL), pseudovirus neutralization [37]: 1.25 µg/mL | IC50 (µg/mL), pseudovirus neutralization [38]: 0.518 µg/mL | IC50, pseudovirus neutralization [39]: 0.371 µg/mL | IC50 [40]: 0.05 µg/mL | IC50 [41]: 0.141 µg/mL | IC50 [42]: 0.027 µg/mL | IC50 [43]: 0.164 µg/mL | IC50 [44]: 0.69 µg/mL

5147_N06 (PGT-130) (antibody)
Fold IC50 increase relative to wild-type [10]: > 50 fold | Fold IC50 increase relative to wild-type [7]: 0.1 fold | Fold IC50 increase relative to wild-type [5]: 0.5 fold
